Patent publication US20190160187A1 (CORNELL UNIVERSITY, published 2019)

Biological target: the molecule itself
Assay: Western blot, HEK 293T-orf6 cells (self-association into a homotetramer)
Procedure: To assess ALDH2 tetramer formation from AAVrh.10hALDH2 directed expression of the human ALDH2 protein in vitro, HEK 293T cells were infected with the AAVrh.10hALDH2 vector or a control AAVrh.10-hα1 AT vector, and supernatant was harvested 72 hours later. Human ALDH2 tetramer formation in supernatant was evaluated by SDS-PAGE and Western analysis with an anti-HA antibody.

B1: human ALDH2 with C-terminal hemagglutinin (HA) tag, expressed from the AAVrh.10hALDH2 vector (enzyme)
chain: SAAATQAVPAPNQQPEVFCNQIFINNEWHDAVSRKTFPTVNPSTGEVICQVAEGDKEDVDKAVKAARAAFQLGSPWRRMDASHRGRLLNRLADLIERDRTYLAALETLDNGKPYVISYLVDLDMVLKCLRYYAGWADKYHGKTIPIDGDFFSYTRHEPVGVCGQIIPWNFPLLMQAWKLGPALATGNVVVMKVAEQTPLTALYVANLIKEAGFPPGVVNIVPGFGPTAGAAIASHEDVDKVAFTGSTEIGRVIQVAAGSSNLKRVTLELGGKSPNIIMSDADMDWAVEQAHFALFFNQGQCCCAGSRTFVQEDIYDEFVERSVARAKSRVVGNPFDSKTEQGPQVDETQFKKILGYINTGKQEGAKLLCGGGIAADRGYFIQPTVFGDVQDGMTIAKEEIFGPVMQILKFKTIEEVVGRANNSTYGLAAAVFTKDLDKANYLSQALQAGTVWVNCYDVFGAQSPFGGYKMSGSGRELGEYGLQAYTEVKTVTVKVPQKNS
notes: also called human aldehyde dehydrogenase 2; hALDH2-HA; not shown: C-terminal hemagglutinin (HA) tag
- binding result: binds
